The source of these data is patent publication US20220282217A1, “COMPOSITIONS AND METHODS FOR PREPARING T CELL COMPOSITIONS AND USES THEREOF” (priority 2019, published 2022).

Holding throughout (conditions): remark: other sources report otherwise
The target in experiment [1] is T1, HLA-B07.02 class I MHC molecule (prepared complex) (human). As to the kind of experiment: displacement of radiolabeled reference peptide from class I MHC, gel filtration; 'Affinity (nM)'. In general terms: Size exclusion chromatography separates by hydrodynamic size, large species first.
Experiment [2] addresses T2, HLA-A02.01 class I MHC molecule (prepared complex) (human). The description is as above.
Experiment [3] deals with T1, HLA-B07.02 class I MHC molecule …. As to the kind of experiment: dissociation of peptide-MHC-I complex at 37 C, 125I-labelled b2m, scintillation.
The target of experiment [4] is T2, HLA-A02.01 class I MHC molecule …. Described as above.
Experiment [5] addresses HLA-B07.02 (human). As to the kind of experiment: competition with radiolabeled reference peptide, purified MHC I.
The target of experiment [6] is HLA-B07.02 (human). As to the kind of experiment: pMHC-I dissociation half-life, 125I-b2m.
Experiment [7] deals with HLA-A02:01 class I MHC molecule (human). Nature of the experiment: competition with a radiolabeled reference peptide for purified MHC I, gel filtration; 'Affinity (nM)'.
For experiment [8], the target named is HLA-B07:02 class I MHC molecule (human). The description is as above.
The target of experiment [9] is HLA-A02:01 class I MHC molecule (human). As to the kind of experiment: pMHC-I dissociation at 37 C, 125I-labeled b2m, scintillation counts.
Experiment [10] addresses HLA-B07:02 class I MHC molecule (human). The experiment is described as above.

B1: EGFR_T790M peptide … (peptide)
peptide: MQLMPFGCL
B1: the IC50 (usually the concentration that inhibits the measured activity by half) stood at 1590 nM in experiment [1] and 116 nM in experiment [2]. Further, the Stability (half-life (hr.)) in [3] is 0 h; in experiment [4] it was 0.368 h.

B2: … (peptide)
peptide: LPRKPTRAA
The molecule B2 returned an IC50 in the experiment with HLA-B07.02 (human) [5] of 8 nM. Besides, the Stability (T1/2 (h)) in the experiment with HLA-B07.02 (human) [6] is 5.5 h.

B3: BTK_C481S peptide … (peptide)
peptide: SLLNYLREM
Turning to B3, the IC50 is 67.7 nM in [7] and 866 nM in [8]. Moreover, the results for the Stability (half-life (hr.)) in experiment [9] and in [10] were 3.04 h and 0 h, respectively.
